Measured values reported in patent US6391637.

Key:
[1] = target: CD40/Fc fusion protein (human) (UniProt P25942); assay: BIAcore biosensor; CD40/Fc captured on the chip; first experiment; K2 (site 2)
[2] = target: CD40/Fc fusion protein (human) (UniProt P25942); assay: BIAcore biosensor; CD40/Fc captured on the chip; first experiment
[3] = target: CD40/Fc fusion protein (human) (UniProt P25942); assay: BIAcore biosensor; CD40/Fc captured on the chip; second experiment
[4] = target: CD40/Fc fusion protein (human) (UniProt P25942); assay: BIAcore biosensor; CD40/Fc captured by goat anti-human IgG1 Fc on the chip, CD40-L construct at increasing concentrations; first experiment
[5] = target: CD40/Fc fusion protein (human) (UniProt P25942); assay: BIAcore biosensor; CD40/Fc captured on the chip; second experiment; K1 (site 1)
[6] = target: CD40/Fc fusion protein (human) (UniProt P25942); assay: BIAcore biosensor; CD40/Fc captured on the chip; first experiment; K1 (site 1)
[7] = target: CD40/Fc fusion protein (human) (UniProt P25942); assay: BIAcore biosensor; CD40/Fc captured on the chip; second experiment; K2 (site 2)
[8] = target: CD40/Fc fusion protein (human) (UniProt P25942); assay: BIAcore biosensor; CD40/Fc captured on the chip; second experiment; K2 (site 2); site 1 not detected
[9] = target: CD40 on cells that express CD40 (UniProt P25942); assay: cell-based or functional assay
Chain of CD40 on cells that express CD40 (P25942 21-277 limits assumed): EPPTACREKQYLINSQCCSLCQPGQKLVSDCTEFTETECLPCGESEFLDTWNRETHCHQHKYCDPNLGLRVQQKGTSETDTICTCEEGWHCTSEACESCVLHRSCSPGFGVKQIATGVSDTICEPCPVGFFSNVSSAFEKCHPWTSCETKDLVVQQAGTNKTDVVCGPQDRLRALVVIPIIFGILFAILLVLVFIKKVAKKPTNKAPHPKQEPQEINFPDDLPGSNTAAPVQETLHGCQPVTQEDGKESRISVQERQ

Chain of CD40/Fc fusion protein (human) (P25942 21-193): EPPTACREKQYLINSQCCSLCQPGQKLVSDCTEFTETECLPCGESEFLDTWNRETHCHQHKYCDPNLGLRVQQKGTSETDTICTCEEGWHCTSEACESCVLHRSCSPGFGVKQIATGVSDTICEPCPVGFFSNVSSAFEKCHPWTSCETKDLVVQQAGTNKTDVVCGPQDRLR
Chain of trimeric human CD40-L (oligomerizing zipper fusion, Example 15) (P29965 51-261 limits assumed): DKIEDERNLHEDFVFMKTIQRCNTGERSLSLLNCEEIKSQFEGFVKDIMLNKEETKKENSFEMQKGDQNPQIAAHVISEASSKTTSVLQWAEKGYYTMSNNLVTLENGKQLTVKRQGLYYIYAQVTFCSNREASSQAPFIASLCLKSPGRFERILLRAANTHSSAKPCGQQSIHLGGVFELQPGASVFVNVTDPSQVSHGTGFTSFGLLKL

Row | Ka [1] [M⁻¹] | Site2 (mol/mol CD40/Fc) (mol/mol CD40/Fc) [2] | Site2 (mol/mol CD40/Fc) (mol/mol CD40/Fc) [3] | Ka [6] [M⁻¹] | Substance | Ka [8] [M⁻¹] | other results
1 | 7.5e+07 | 0.68 | 0.41 | 5e+09 | trimeric human CD40-L (oligomerizing zipper fusion, Example 15) (from UniProt P29965 51-261) (ligand) | – | Site1 (mol/mol CD40/Fc) (mol/mol CD40/Fc) [3]: 0.26; Site1 (mol/mol CD40/Fc) (mol/mol CD40/Fc) [4]: 0.04; Ka [5]: 6.6e+08 M⁻¹; Ka [7]: 2.6e+07 M⁻¹
2 | – | – | 1.27 | – | monomeric human CD40-L, preparation #2 (ligand) | 1.1e+07 | –

Further lines, the substance ahead of its results:

Row | Substance | Ka [1] [M⁻¹] | Site2 (mol/mol CD40/Fc) (mol/mol CD40/Fc) [2] | Site2 (mol/mol CD40/Fc) (mol/mol CD40/Fc) [3] | Ka [6] [M⁻¹] | Ka [8] [M⁻¹] | other results
3 | monomeric human CD40-L, preparation #1 (ligand) | – | – | 1.2 | – | 4.6e+07 | –
4 | trimeric murine CD40-L (oligomerizing zipper fusion) (ligand) | 1.6e+08 | 0.44 | – | 6e+10 | – | Site1 (mol/mol CD40/Fc) (mol/mol CD40/Fc) [2]: 0.02
5 | wild type CD40 ligand/zipper domain fusion protein (WT) expressed in yeast | – | – | – | – | – | B-cell proliferation (U/µg), Experiment 1; WT [9]: 77 U/µg; B-cell proliferation (U/µg), Experiment 2; WT [9]: 15 U/µg
